Residue numbers refer to the chain shown, from its start. Names may count otherwise.
Tested on: Lenti-X 293T cells
Experiment: YFP fluorescence quenching anion reporter plate reader assay of engineered receptors stimulated with acetylcholine or a non-native ligand
Format: cell-based
Settings: for percent quench of YFP fluorescence, 10 uM ach: acetylcholine 10 uM; for percent quench of YFP fluorescence, 100 uM ach: acetylcholine 100 uM; for percent quench of YFP fluorescence, 1 mM ach: acetylcholine 1 mM; for percent quench of YFP fluorescence, 3 mM ach: acetylcholine 3 mM
Description: To screen these mutant LGICs for those having novel response profiles to ligands, an anion reporter assay was developed to assess the function of the LGICs in a high throughput format. In this assay, cells expressing a YFP reporter whose fluorescence is quenched in the presence of anion are transfected with DNA encoding the channel of interest. Upon exposure to ligand, channels that are activated will flux anion, resulting in a dose-dependent quench of the YFP that can be detected on a plate reader. The greater the quench signal (i.e., the more positive the value), the higher the ligand activity on the receptor is.
Lenti-X 293T cells (LX293T, Clontech) were maintained in DMEM containing 10% FBS and 1% penicillin/streptomycin (Invitrogen). […] Two days before assay, cells were split at a density of 20,000 cells/well in a 96-well tissue culture plate coated with poly-d lysine (Thermo Scientific). The next day, the cells were transiently transfected with 0.1 μg of DNA per well using standard Fugene protocol (Promega). On the day of assay, cells were washed 2 times in 1× extracellular solution (1×ECS: 140 mM NaCl, 5 mM KCl, 1 mM MgCl2, 2 mM CaCl2), 10 mM HEPES, 10 mM glucose, pH 7.2, mOsms 300). After the last wash, 100 μL of 1×ECS was added to the wells and the plate was incubated at 37° C. for 30 min. While incubating the plate, the drugs were diluted to a 2× concentration in 1×ECS-NaI (same components as 1×ECS except the 140 mM NaCl was replaced by 140 mM NaI). The plates were then read on a Flexstation3 (Molecular Devices). Each well, 8 wells at a time, of the plate is read for 2 min using a Flexstation3 (Molecular Devices) as follows: 1) a baseline YFP fluorescence is read for 17 sec, 2) 100 μL of ligand is added, and 3) the changes in YFP fluorescence are then measured every 1.3 sec for 1 minute and 43 seconds. The percent quench is calculated from the average fluorescence of the last 10 seconds of the read divided by the baseline average of the first 15 seconds prior to the ligand addition.
FIGS. 1A-1J provide heat maps of the percent quench of YFP fluorescence following stimulation by various doses of either acetylcholine or the non-native ligand as indicated in the Figures. CODA71 (SEQ ID NO: 33) was used as a control, and CODA75 (SEQ ID NO: 29, a non-responding chimeric engineered receptor) was used as the negative control. Quenching of the fluorescence signal, as indicated by blue shaded cells, indicate the level of engineered receptor activation by the non-native ligand at that concentration.

B1: CODA283: engineered chimeric LGIC receptor, Y115E_N379K in SEQ ID NO: 33 (protein)
chain: MRCSPGGVWLALAASLLHVSLQGEFQRKLYKELVKNYNPLERPVANDSQPLTVYFSLSLLQIMDVDEKNQVLTTNIWLQMSWTDHYLQWNVSEYPGVKTVRFPDGQIWKPDILLENSADERFDATFHTNVLVNSSGHCQYLPPGIFKSSCPMDLKNFPMDVQTCKLKFGSWSYGGWSLDLQMQEADISGYIPNGEWDLVGIPGKRSERFYECCKEPYPDVTFTVTMRRRMGYYLIQMYIPSLLIVILSWISFWINMDAAPARVGLGITTVLTMTTQSSGSRASLPKVSYVKAIDIWMAVCLLFVFSALLEYAAVNFVSRQHKELLRFRRKRRHHKSPMLNLFQEDEAGEGRFNFSAYGMGPACLQAKDGISVKGANNSKTTNPPPAPSKSPEEMRKLFIQRAKKIDKISRIGFPMAFLIFNMFYWIIYKIVRREDVHNQ
modifications: synthetic sequence of chimeric LGIC
YFP fluorescence quenching using CNL001 (1 nM CNL001, first column): −0.713%
YFP fluorescence quenching using CNL001 (1 nM CNL001, second column): −0.621%
YFP fluorescence quenching using TC-5619/Bradanicline (1 nM brd): 0.59%
YFP fluorescence quenching using TC-5619/Bradanicline (3 nM brd): −6.41%
YFP fluorescence quenching using CNL001 (10 nM CNL001, first column): 7.739%
YFP fluorescence quenching using CNL001 (10 nM CNL001, second column): 15.277%
YFP fluorescence quenching using TC-5619/Bradanicline (10 nM brd): −1.58%
YFP fluorescence quenching using TC-5619/Bradanicline (30 nM brd): −14.24%
YFP fluorescence quenching using Facinicline (30 nM fac): 6.39
YFP fluorescence quenching using CNL001 (50 nM CNL001, first column): 19.489%
YFP fluorescence quenching using CNL001 (50 nM CNL001, second column): 33.703%
YFP fluorescence quenching using ABT-126 (50 nM abt): −22.65%
YFP fluorescence quenching using CNL001 (100 nM CNL001, first column): 56.886%
YFP fluorescence quenching using CNL001 (100 nM CNL001, second column): 60.171%
YFP fluorescence quenching using CNL002 (100 nM CNL002): −5.81%
YFP fluorescence quenching using ABT-126 (100 nM abt): −20.55%
YFP fluorescence quenching using AZD-0328 (100 nM azd0328): −2.1%
YFP fluorescence quenching using TC-5619/Bradanicline (100 nM brd): 33.36%
YFP fluorescence quenching using ABT-126 (300 nM abt): −12.93%
YFP fluorescence quenching using AZD-0328 (300 nM azd0328): 38.2%
YFP fluorescence quenching using TC-5619/Bradanicline (300 nM brd): 43.81%
YFP fluorescence quenching using Facinicline (300 nM fac): 78.36
YFP fluorescence quenching using CNL001 (1 uM CNL001, first column): 69.836%
YFP fluorescence quenching using CNL001 (1 uM CNL001, second column): 73.855%
YFP fluorescence quenching using CNL002 (1 uM CNL002): 9.69%
YFP fluorescence quenching using ABT-126 (1 uM abt): 1.71%
YFP fluorescence quenching using TC-5619/Bradanicline (1 uM brd): 75.39%
YFP fluorescence quenching using TC-6987 (1 uM tc6987): −9.54
YFP fluorescence quenching using Facinicline (10 uM fac): 81.93
YFP fluorescence quenching using TC-6987 (10 uM tc6987): −7.06
YFP fluorescence quenching using CNL002 (30 uM CNL002): −12.85%
YFP fluorescence quenching using AZD-0328 (30 uM azd0328): 79.44%
YFP fluorescence quenching using Facinicline (30 uM fac): 78.63
YFP fluorescence quenching using TC-6987 (500 uM tc6987): −15.15
percent quench of YFP fluorescence, 10 uM ach: −6.16%
percent quench of YFP fluorescence, 100 uM ach: −11.12%
percent quench of YFP fluorescence, 1 mM ach: −2.74%
percent quench of YFP fluorescence, 3 mM ach: 53.61%

B2: CODA325: engineered chimeric LGIC receptor, L131G in SEQ ID NO: 33 (protein)
chain: B1 chain with E115Y, L131G, K379N
modifications: synthetic sequence of chimeric LGIC
YFP fluorescence quenching using CNL001 (1 nM CNL001, first column): 74.429%
YFP fluorescence quenching using CNL001 (1 nM CNL001, second column): 78.715%
YFP fluorescence quenching using TC-5619/Bradanicline (3 nM brd): 68.45%
YFP fluorescence quenching using Varenicline (3 nM var, first column): −12.241
YFP fluorescence quenching using Varenicline (3 nM var, second column): −9.415
YFP fluorescence quenching using CNL001 (10 nM CNL001, first column): 79.033%
YFP fluorescence quenching using CNL001 (10 nM CNL001, second column): 79.322%
YFP fluorescence quenching using TC-5619/Bradanicline (30 nM brd): 76.95%
YFP fluorescence quenching using Facinicline (30 nM fac): 75.75
YFP fluorescence quenching using Varenicline (30 nM var, first column): 75.334
YFP fluorescence quenching using Varenicline (30 nM var, second column): 72.278
YFP fluorescence quenching using CNL001 (50 nM CNL001, first column): 79.966%
YFP fluorescence quenching using CNL001 (50 nM CNL001, second column): 80.091%
YFP fluorescence quenching using ABT-126 (50 nM abt): −17.39%
YFP fluorescence quenching using CNL001 (100 nM CNL001, first column): 81%
YFP fluorescence quenching using CNL001 (100 nM CNL001, second column): 79.701%
YFP fluorescence quenching using CNL002 (100 nM CNL002): 45.62%
YFP fluorescence quenching using ABT-126 (100 nM abt): 6.89%
YFP fluorescence quenching using AZD-0328 (100 nM azd0328): 79.75%
YFP fluorescence quenching using ABT-126 (300 nM abt): 38.65%
YFP fluorescence quenching using AZD-0328 (300 nM azd0328): 80.62%
YFP fluorescence quenching using TC-5619/Bradanicline (300 nM brd): 77.1%
YFP fluorescence quenching using Facinicline (300 nM fac): 78.01
YFP fluorescence quenching using Varenicline (300 nM var, first column): 78.305
YFP fluorescence quenching using Varenicline (300 nM var, second column): 77.83
YFP fluorescence quenching using Varenicline (500 nM var, first column): 75.936
YFP fluorescence quenching using Varenicline (500 nM var, second column): 76.788
YFP fluorescence quenching using CNL001 (1 uM CNL001, first column): 79.289%
YFP fluorescence quenching using CNL001 (1 uM CNL001, second column): 80.581%
YFP fluorescence quenching using CNL002 (1 uM CNL002): 74.72%
YFP fluorescence quenching using ABT-126 (1 uM abt): 45.82%
YFP fluorescence quenching using TC-6987 (1 uM tc6987): 64.59
YFP fluorescence quenching using Varenicline (1 uM var, first column): 77.805
YFP fluorescence quenching using Varenicline (1 uM var, second column): 77.352
YFP fluorescence quenching using TC-6987 (10 uM tc6987): 76.28
YFP fluorescence quenching using CNL002 (30 uM CNL002): 77.4%
YFP fluorescence quenching using AZD-0328 (30 uM azd0328): 80.19%
YFP fluorescence quenching using Facinicline (30 uM fac): 76.61
YFP fluorescence quenching using TC-6987 (500 uM tc6987): 70.95
percent quench of YFP fluorescence, 30 nM TC-6683 (TC-6683 30 nM): −21.27%
percent quench of YFP fluorescence, 300 nM TC-6683 (TC-6683 300 nM): −18.33%
percent quench of YFP fluorescence, 3 uM TC-6683 (TC-6683 3 uM): −7.03%
percent quench of YFP fluorescence, 30 uM TC-6683 (TC-6683 30 uM): 56.84%
percent quench of YFP fluorescence, 100 uM TC-6683 (TC-6683 100 uM): 64.51%
percent quench of YFP fluorescence, 10 uM ach: 5.66%
percent quench of YFP fluorescence, 100 uM ach: 74.07%
percent quench of YFP fluorescence, 1 mM ach: 62.65%
percent quench of YFP fluorescence, 3 mM ach: 69.49%

Source: patent US20240317834A1, “COMPOSITIONS AND METHODS FOR NEUROLOGICAL DISEASES” (CODA BIOTHERAPEUTICS, INC., priority 2020, published 2024)
